Measurements reported in publication PMC11558822, “Myc 9aaTAD activation domain binds to mediator of transcription with superior high affinity” (Molecular Medicine, 2024).

Test system: lacZ reporter driven by the lexA operator
Experiment: One hybrid transactivation (β-galactosidase reporter) assay with LexA hybrids in yeast strain L40
Assay type: cell-based, Saccharomyces cerevisiae
Conditions: for ß-Gal: raw β-galactosidase activity; for Reporter activation (average value in %): β-galactosidase activity of LexA hybrid, % of positive control p53 construct 6p53 set to 100%, mean ± SD, n = 3; for normalized value in %: β-galactosidase, % of 6p53 mean
[1] = replicate 1 (first sample of the construct)
[2] = replicate 2 (second sample of the construct)
[3] = replicate 3 (third sample of the construct)

| Molecule | ß-Gal [1] | ß-Gal [2] | ß-Gal [3] | Reporter activation (average value in %) | normalized value in % [1] | normalized value in % [2] | normalized value in % [3] | activation function (times) (one hybrid assay, presence versus absence of 9aaTAD (region 100–108) in the construct) |
| --- | --- | --- | --- | --- | --- | --- | --- | --- |
| c-Myc region 1-103: LexA hybrid construct of c-Myc N-terminal region 1–103 without 9aaTAD (protein, UniProt P01106 1-103, looked up, fragment, LexA fusion, LexA hybrid construct of c-Myc N-terminal region 1–103 without 9aaTAD) MDFFRVVENQQPPATMPLNVSFTNRNYDLDYDSVQPYFYCDEEENFYQQQQQSELQPPAPSEDIWKKFELLPTPPLSPSRRSGLCSPSYVAVTPFSLRGDNDG | 25 | 24 | 27 | 9% | 9% | 9% | 10% | – |
| c-Myc region 1-108: LexA hybrid construct of c-Myc N-terminal region 1–108 with 9aaTAD (protein, UniProt P01106 1-108, looked up, fragment, LexA fusion, LexA hybrid construct of c-Myc N-terminal region 1–108 with 9aaTAD) MDFFRVVENQQPPATMPLNVSFTNRNYDLDYDSVQPYFYCDEEENFYQQQQQSELQPPAPSEDIWKKFELLPTPPLSPSRRSGLCSPSYVAVTPFSLRGDNDGGGGSF | 136 | 123 | 139 | 49% | 50% | 45% | 51% | 5 times |
